The results in this text go back to publication PMC2115427.

The target of the assay is urokinase plasminogen activator receptor (uPAR) of U937 cells (human (endogenous in U937)) (UniProt Q03405).
Sequence of UniProt Q03405 (Q03405 23-305): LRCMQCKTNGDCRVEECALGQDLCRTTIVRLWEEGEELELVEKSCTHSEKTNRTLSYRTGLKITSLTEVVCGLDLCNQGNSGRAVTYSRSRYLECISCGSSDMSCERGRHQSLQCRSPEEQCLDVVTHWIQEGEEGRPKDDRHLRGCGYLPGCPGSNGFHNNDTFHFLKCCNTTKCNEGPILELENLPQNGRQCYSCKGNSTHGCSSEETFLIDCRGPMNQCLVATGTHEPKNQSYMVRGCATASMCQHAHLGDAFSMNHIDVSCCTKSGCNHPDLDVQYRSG

Regarding “human urinary urokinase of high Mr (uPA) (enzyme)”, the half-life of dissociation was 3 h.
